Measured values published in patent US10287340B2, “Anti-HIV domain antibodies and method of making and using same” (priority 2008, dated 2019).
Entries after “also recorded” stand apart in the source; their conditions may differ. Where two headings read alike, the source gives them in different places.

Tests used:
gp120Bal-CD4 [1] = assay: Binding ELISA to gp120Bal-CD4 (Example 3); design: species or system HIV-1
[2] = system: Viruses pseudotyped with HIV-1 Envs; assay: Pseudovirus neutralization assay; format: cell-based; conditions: for neutralizing activity compared to m36: side by side in the same experiment
gp120Bal = assay: ELISA binding to gp120 alone; design: species or system HIV-1; conditions: without CD4
[3] = system: gp140 from a clade C isolate GXC-44 (gp140GXC-44); assay: Binding ELISA to gp140GXC-44; design: species or system HIV-1
gp120Bal-CD4 [4] = assay: Competition ELISA on gp120Bal-CD4; format: binding, HIV-1
Experimental: (§1) Antigens were coated and blocked as described above. […] Mixtures were subsequently added to each well and incubated. Bound m36 was detected and the assay was developed as described above.

gp140GXC-44 = assay: Competition ELISA on gp140GXC-44; format: binding, HIV-1; conditions: in the absence of CD4
Experimental: as §1

[5] = Storage of VH protein solutions at 4° C., precipitation; format: physicochemical; conditions: stored at 4° C. for 4 weeks
soluble CD4 (sCD4) = soluble CD4 (sCD4) (Homo sapiens, UniProt P01730); assay: ELISA binding to CD4 alone
BSA = BSA (Bos taurus, UniProt P02769); assay: Binding ELISA to BSA (unrelated antigen)
[6] = Size exclusion chromatography, oligomerization; conditions: Superdex75, PBS
[7] = target: serum albumin from human (HSA) (Homo sapiens, UniProt P02768); assay: Binding of m36SAbp to human serum albumin; conditions: data not shown
[8] = target: serum albumin from bovine (BSA) (Bos taurus, UniProt P02769); assay: Binding of m36SAbp to bovine serum albumin; conditions: data not shown
[9] = target: serum albumin from mouse (MSA) (Mus musculus, UniProt P07724); assay: Binding of m36SAbp to mouse serum albumin; conditions: data not shown
serum albumin from mouse (MSA), sequence (P07724 25-608): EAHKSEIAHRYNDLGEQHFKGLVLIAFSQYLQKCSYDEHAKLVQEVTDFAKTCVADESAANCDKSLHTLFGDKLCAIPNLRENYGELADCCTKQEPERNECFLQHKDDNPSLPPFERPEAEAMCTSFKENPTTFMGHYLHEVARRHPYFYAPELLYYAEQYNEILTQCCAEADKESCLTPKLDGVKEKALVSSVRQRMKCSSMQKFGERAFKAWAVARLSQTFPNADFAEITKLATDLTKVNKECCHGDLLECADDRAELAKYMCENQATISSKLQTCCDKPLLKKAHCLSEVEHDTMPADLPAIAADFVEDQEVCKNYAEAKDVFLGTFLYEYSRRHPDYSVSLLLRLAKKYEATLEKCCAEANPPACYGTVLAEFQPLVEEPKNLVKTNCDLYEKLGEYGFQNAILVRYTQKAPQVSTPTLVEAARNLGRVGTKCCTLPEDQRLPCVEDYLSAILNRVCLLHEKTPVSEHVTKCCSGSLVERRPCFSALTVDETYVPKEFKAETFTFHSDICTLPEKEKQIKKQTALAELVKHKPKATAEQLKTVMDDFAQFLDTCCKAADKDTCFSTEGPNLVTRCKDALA

tethered gp140 from 89.6, sequence (Q73372 32-496 limits assumed): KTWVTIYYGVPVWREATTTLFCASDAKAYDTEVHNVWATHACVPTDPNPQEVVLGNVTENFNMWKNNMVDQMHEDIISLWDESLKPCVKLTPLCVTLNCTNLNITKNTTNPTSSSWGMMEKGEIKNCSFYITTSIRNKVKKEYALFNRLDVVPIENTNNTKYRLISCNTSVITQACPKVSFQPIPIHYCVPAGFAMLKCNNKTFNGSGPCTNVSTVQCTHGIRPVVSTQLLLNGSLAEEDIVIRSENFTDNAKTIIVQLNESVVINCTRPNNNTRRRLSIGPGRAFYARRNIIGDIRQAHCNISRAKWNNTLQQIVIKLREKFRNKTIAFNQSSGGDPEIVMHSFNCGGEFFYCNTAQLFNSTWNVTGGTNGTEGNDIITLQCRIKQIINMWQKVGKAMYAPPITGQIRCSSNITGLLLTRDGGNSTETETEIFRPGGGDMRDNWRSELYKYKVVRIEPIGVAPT
BSA, sequence (P02769 25-607): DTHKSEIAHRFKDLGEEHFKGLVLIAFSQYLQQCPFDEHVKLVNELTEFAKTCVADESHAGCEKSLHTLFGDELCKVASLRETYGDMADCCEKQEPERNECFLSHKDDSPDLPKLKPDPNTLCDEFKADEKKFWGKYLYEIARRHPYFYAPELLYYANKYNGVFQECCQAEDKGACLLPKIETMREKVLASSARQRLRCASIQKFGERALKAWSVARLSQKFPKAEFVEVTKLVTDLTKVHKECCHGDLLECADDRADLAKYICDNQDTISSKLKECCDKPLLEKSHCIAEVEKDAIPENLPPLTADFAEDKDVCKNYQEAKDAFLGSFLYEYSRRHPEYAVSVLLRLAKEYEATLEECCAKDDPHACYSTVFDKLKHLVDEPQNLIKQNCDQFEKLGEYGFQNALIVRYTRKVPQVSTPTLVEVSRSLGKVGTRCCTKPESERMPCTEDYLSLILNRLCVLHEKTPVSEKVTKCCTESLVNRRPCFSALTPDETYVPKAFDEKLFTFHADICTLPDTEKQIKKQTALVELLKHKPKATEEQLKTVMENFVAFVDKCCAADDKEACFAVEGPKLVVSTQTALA
serum albumin from bovine (BSA), sequence (P02769 25-607): as above

B1: m36h3Fc: m36 joined with human IgG1 Fc by a human IgG3 hinge (protein)
chain: QVQLVQSGGGLVQPGGSLRLSCAASAFDFSDYEMSWVRQAPGKGLEWIGEINDSGNTIYNPSLKSRVTISRDNSKNTLYLQMNTLRAEDTAIYYCAIYGGNSGGEYWGQGTLVTVSSELKTPLGDTTHTCPRCPEPKSCDTPPPCPRCP
modifications: left off: a dimerising Fc or GST
notes: m36 joined with human IgG1 Fc by a human IgG3 hinge
With B1 the EC50 (gp120Bal-CD4 [1]) was ~0.5 nM, the “number of isolates neutralized” value [2] was “five isolates” and the “potency against 89.6 compared to m36” value [2] was “higher than that of m36”. For the same molecule, the “potency compared to m36h1Fc” value [2] was “did not exhibit higher potency”.

B2: m36c2Fc: m36 joined with human IgG1 Fc by a camel IgG2 hinge (protein)
chain: QVQLVQSGGGLVQPGGSLRLSCAASAFDFSDYEMSWVRQAPGKGLEWIGEINDSGNTIYNPSLKSRVTISRDNSKNTLYLQMNTLRAEDTAIYYCAIYGGNSGGEYWGQGTLVTVSSEPKIPQPQPKPQPQPQPQPKPQPKPEPECTCPKCP
modifications: left off: a dimerising Fc or GST
notes: m36 joined with human IgG1 Fc by a camel IgG2 hinge
For B2, the EC50 (gp120Bal-CD4 [1]) was ~0.5 nM, the “number of isolates neutralized” value [2] was “five isolates” and the “potency against 89.6 compared to m36” value [2] was “higher than that of m36”. For the same molecule, the “potency compared to m36h1Fc” value [2] was “did not exhibit higher potency”.

B3: m36: human VH domain antibody (dAb) on m0 scaffold targeting CD4i epitope of HIV-1 gp120; CDR3 AIYGGNSGGEY (protein)
VHH: QVQLVQSGGGLVQPGGSLRLSCAASAFDFSDYEMSWVRQAPGKGLEWIGEINDSGNTIYNPSLKSRVTISRDNSKNTLYLQMNTLRAEDTAIYYCAIYGGNSGGEYWGQGTLVTVSS
With B3 the “binding to gp120 alone” value (gp120Bal) was “not to gp120Bal or to soluble CD4 (sCD4) and BSA”, the “binding to gp140GXC-44” value ([3]; gp140GXC-44 alone) was “did bind although weaker” and the “binding to gp140GXC-44” value ([3]; in the presence of sCD4) was “bound”. The “competition with CD4bs antibody m14 for binding to gp120Bal-CD4” value (gp120Bal-CD4 [4]) was “not with the CD4 binding site (CD4bs) antibody m14”, the “competition with CD4i antibody m16 for binding to gp120Bal-CD4” value (gp120Bal-CD4 [4]) was “competed” and the “competition with m14 for binding to gp140GXC-44” value (gp140GXC-44) was “competed”. For the same molecule, the “inhibition of the isolate from clade C” value ([2]; at 667 nM) was 100%, the “isolates completely (100%) inhibited” value ([2]; at 667 nM, 7 clade B isolates in panel) was 4 out of 7 and the “neutralization of the clade E isolate GXE” value ([2]; at concentrations up to 667 nM) was “did not neutralize”. The “potency compared to peptide C34” value ([2]; average over panel) was “on average more potent”, the “neutralization potency compared to scFv m9” value ([2]; average, six clade B, one clade C, one clade A isolate, IC50s on molar basis) was “two-fold higher” and the “cross-reactivity against HIV-1 isolates” value ([2]; clade A, B, C, and D) was “cross-reactive”. For the same molecule, the “neutralization activity compared to scFv m9” value ([2]; clade B isolate 89.6 and clade-D isolate Z2Z6) was “lower neutralization activity”, the IC90 ([2]; clade C isolate GXC-44 and clade B isolate NL4-3) was “very low IC90s” and the precipitation on storage [5] was “no precipitation”. For the same molecule, the “binding to tethered gp140 from 89.6” value (tethered gp140 from 89.6; after gp140 bound to CD4) was “enhanced”, the “binding to tethered gp140 from 89.6” value (tethered gp140 from 89.6; without complexation with CD4) was “bound” and the “binding to CD4 alone” value (soluble CD4 (sCD4)) was “not to gp120Bal or to soluble CD4 (sCD4) and BSA”. The “binding to CD4 alone” value (soluble CD4 (sCD4); listed as b5) was “neither gp120 nor CD4 alone”, the “binding to BSA” value (BSA) was “not to gp120Bal or to soluble CD4 (sCD4) and BSA” and the oligomeric state [6] was “monomeric”.

B4: m36b0Fc: m36 fused to human IgG1 Fc without peptide linker, MW~80 kDa (protein)
VHH: B3 VHH
modifications: left off: a dimerising Fc or GST
notes: m36 fused to human IgG1 Fc without peptide linker, MW~80 kDa
With B4 the “binding to gp120Bal-CD4 compared to m36” value (gp120Bal-CD4 [1]) was “bound slightly better”, the “inhibitory activity against 89.6 and NL4-3” value [2] was “decreased inhibitory activity” and the “neutralization of TCLA isolate IIIB” value [2] was “lost neutralization”.

B5: m36CH3: m36 fused to human IgG1 CH3 domain without linker, MW~60 kDa (protein)
VHH: B3 VHH
modifications: left off: a dimerising Fc or GST; small tags and cut ends
notes: m36 fused to human IgG1 CH3 domain without linker, MW~60 kDa
For B5, the “binding to gp120Bal-CD4 compared to m36” value (gp120Bal-CD4 [1]) was “comparable to that of m36”, the “isolates with loss of neutralization compared to m36” value ([2]; 10 isolates) was 7 of 10 and the “IC50s compared to the corresponding ones for m36” value ([2]; IIIB, 89.6 and NL4-3) was “significantly higher”. The “neutralizing activity compared to m36” value [2] was “significantly weaker”.

B6: m36SAbp: m36 fused to a serum albumin binding peptide (SAbp), MW~18 kDa (protein)
chain: QVQLVQSGGGLVQPGGSLRLSCAASAFDFSDYEMSWVRQAPGKGLEWIGEINDSGNTIYNPSLKSRVTISRDNSKNTLYLQMNTLRAEDTAIYYCAIYGGNSGGEYWGQGTLVTVSSQRHPEDICLPRWGCLWGDDD
modifications: left off: small tags and cut ends
For B6, the “binding to gp120Bal-CD4 compared to m36” value (gp120Bal-CD4 [1]) was “comparable to that of m36”, the “neutralizing activity compared to m36” value [2] was “slight but not significant decrease; also recorded: about the same neutralizing activity” and the “binding to serum albumin” value [7] was “binds”. For the same molecule, the “binding to serum albumin” value [8] was “binds” and the “binding to serum albumin” value [9] was “binds”.
